From paper doi:10.1101/2025.11.17.685403
Where a chain is given by its changes, count along the chain named.

B1: 5'-overhang (20 nt) (mixed)
DNA 1: TTTTTTTTTTTTTTTTTTTTCTTGACAAGCTTGCGCACT
DNA 2: AGTGCGCAAGCTTGTCAAG
B2: ss39 (ssDNA)
DNA: B1 DNA 1
B3: Fork (20 nt) (mixed)
DNA 1: B1 DNA 1
DNA 2: AGTGCGCAAGCTTGTCAAGGCACTTTTTTTTTTTTTTTT
B4: ds39 (dsDNA)
DNA 1: B1 DNA 1
DNA 2: AGTGCGCAAGCTTGTCAAGAAAAAAAAAAAAAAAAAAAA
B5: 3'-overhang (20 nt) (mixed)
DNA 1: CTTGACAAGCTTGCGCACT
DNA 2: B3 DNA 2
B6: ss26 (ssDNA)
DNA: ACTGCCCTTACAGCACAGCGGTTTTT
B7: ss31 (ssDNA)
DNA: ACTGCCCTTACAGCACAGCGGTTTTTTTTTT
B8: ss21 (ssDNA)
DNA: ACTTACAGCACAGCGGTTTTT
B9: ds21 (dsDNA)
DNA 1: ACTTACAGCACAGCGGTTTTT
DNA 2: AAAAACCGCTGTGCTGTAAGT
B10: ds26 (dsDNA)
DNA 1: ACTGCCCTTACAGCACAGCGGTTTTT
DNA 2: AAAAACCGCTGTGCTGTAAGGGCAGT
B11: Fork (5 nt) (mixed)
DNA 1: ACTGCCCTTACAGCACAGCGGTTTTT
DNA 2: TTTTTCCGCTGTGCTGTAAGGGCAGT
B12: Fork (10 nt) (mixed)
DNA 1: B7 DNA
DNA 2: TTTTTTTTTTCCGCTGTGCTGTAAGGGCAGT
B13: 3'-overhang (5 nt) (mixed)
DNA 1: ACTGCCCTTACAGCACAGCGGTTTTT
DNA 2: CCGCTGTGCTGTAAGGGCAGT
B14: 3'-overhang (10 nt) (mixed)
DNA 1: B7 DNA
DNA 2: CCGCTGTGCTGTAAGGGCAGT
B15: 5'-overhang (5 nt) (mixed)
DNA 1: ACTGCCCTTACAGCACAGCGG
DNA 2: TTTTTCCGCTGTGCTGTAAGGGCAGT
B16: 5'-overhang (10 nt) (mixed)
DNA 1: ACTGCCCTTACAGCACAGCGG
DNA 2: B12 DNA 2

What follows are binders tested against T1, RFS1 E138A (Walker B);RIP1 (cShu subunit);SWS1 (cShu subunit) (Caenorhabditis elegans;Caenorhabditis …, UniProt P34348;Q21621;Q8MYM5 1-245;1-209;1-191, E138A||) (assay: fluorescence polarization).
T1 sequence 1: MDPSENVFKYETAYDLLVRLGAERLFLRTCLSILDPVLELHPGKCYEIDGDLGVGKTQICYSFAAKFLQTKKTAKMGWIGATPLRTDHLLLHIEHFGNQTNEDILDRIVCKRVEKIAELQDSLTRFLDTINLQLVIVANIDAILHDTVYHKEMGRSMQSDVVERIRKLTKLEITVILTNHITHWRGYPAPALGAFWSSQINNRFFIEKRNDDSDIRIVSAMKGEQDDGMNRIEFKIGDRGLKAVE
T1 sequence 2: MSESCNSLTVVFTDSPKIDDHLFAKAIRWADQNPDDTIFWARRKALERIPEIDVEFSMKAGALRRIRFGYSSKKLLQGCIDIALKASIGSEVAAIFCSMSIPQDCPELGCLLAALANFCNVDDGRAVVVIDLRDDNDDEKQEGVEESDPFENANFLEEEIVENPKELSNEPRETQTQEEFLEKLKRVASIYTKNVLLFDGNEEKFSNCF
T1 sequence 3: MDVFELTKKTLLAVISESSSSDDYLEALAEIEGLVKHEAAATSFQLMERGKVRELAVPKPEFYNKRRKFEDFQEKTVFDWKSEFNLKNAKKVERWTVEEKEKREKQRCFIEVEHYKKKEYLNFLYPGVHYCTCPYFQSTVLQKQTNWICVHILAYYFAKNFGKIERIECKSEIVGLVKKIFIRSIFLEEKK
B1 was tested, and the Kd was 3900 ± 100 nM.
With B2 the Kd was 2700 ± 200 nM.
Work on B3 yielded a Kd of 1900 ± 200 nM.
B4: no binding.

Each binder was assayed against T2, RFS1 K56A (Walker A);RIP1 (cShu subunit);SWS1 (cShu subunit) (Caenorhabditis elegans;Caenorhabditis …, UniProt P34348;Q21621;Q8MYM5 1-245;1-209;1-191, K56A||) (assay: fluorescence polarization).
T2 sequence 1: T1 sequence 1 with K56A, A138E
T2 sequence 2: T1 sequence 2
T2 sequence 3: T1 sequence 3
Binder B1 has a Kd of 4500 ± 300 nM.
For B2, the Kd was 3300 ± 200 nM.
B3 was tested, and the Kd was 2500 ± 300 nM.
B4: no binding.

These binders were tested against T3, RFS1 (cShu subunit);RIP1 (cShu subunit);SWS1 (cShu subunit) (Caenorhabditis elegans;Caenorhabditis …, UniProt P34348;Q21621;Q8MYM5 1-245;1-209;1-191, ||) (assay: fluorescence polarization).
T3 sequence 1: T1 sequence 1 with A138E
T3 sequence 2: T1 sequence 2
T3 sequence 3: T1 sequence 3
B1 gave a Kd of 4200 ± 500 nM.
B2 gave a Kd of 2900 ± 100 nM.
In the case of B3, the Kd is reported as 2800 ± 300 nM.
B4: no binding.
B5: no binding.

Molecular target: T1, RFS1 E138A (Walker B);RIP1 (cShu …)
Assay: fluorescence polarization
Remark: another data set of the same source
B1 gave a Kd of 1200 ± 100 nM.
B2 gave a Kd of 2200 ± 100 nM.
B3 gave a Kd of 380 ± 30 nM.

Molecular target: T2, RFS1 K56A (Walker A);RIP1 (cShu …)
Assay: fluorescence polarization
Remark: another data set of the same source
Binder B1 has a Kd of 4700 ± 200 nM.
In the case of B2, the Kd is reported as 3300 ± 100 nM.
Work on B3 yielded a Kd of 2500 ± 100 nM.

Molecular target: T3, RFS1 (cShu subunit);RIP1 (cShu …)
Assay: fluorescence polarization
Remark: another data set of the same source
B1 gave a Kd of 3800 ± 300 nM.
In the case of B2, the Kd is reported as 2900 ± 300 nM.
Work on B3 yielded a Kd of 500 ± 20 nM.

Molecular target: T3, RFS1 (cShu subunit);RIP1 (cShu …)
Assay: fluorescence polarization
Remark: another data set of the same source
B6 showed a Kd of 4200 ± 400 nM.
Work on B7 yielded a Kd of 3200 ± 300 nM.
B8: no binding.
B9: no binding.
B10: no binding.
B11: no binding.
B12: no binding.
B13: no binding.
B14: no binding.
B15: no binding.
B16: no binding.

Molecular target: T1, RFS1 E138A (Walker B);RIP1 (cShu …)
Assay: fluorescence polarization
Remark: another data set of the same source
B1 was tested, and the Kd was 760 ± 40 nM.
B2 showed a Kd of 1000 ± 20 nM.
For B3, the Kd was 140 ± 10 nM.

Molecular target: T2, RFS1 K56A (Walker A);RIP1 (cShu …)
Assay: fluorescence polarization
Remark: another data set of the same source
B1 was tested, and the Kd was 3900 ± 400 nM.
B2 gave a Kd of 3000 ± 100 nM.
With B3 the Kd was 2680 ± 80 nM.

Molecular target: T3, RFS1 (cShu subunit);RIP1 (cShu …)
Assay: fluorescence polarization
Remark: another data set of the same source
For B1, the Kd was 695 ± 3 nM.
Binder B2 has a Kd of 1000 ± 100 nM.
In the case of B3, the Kd is reported as 210 ± 20 nM.
